Publication PMC6908617, “Evolutionary conservation of the intrinsic disorder-based Radical-Induced Cell Death1 hub interactome” (Scientific Reports, 2019)
Like-named read-outs stand apart in the source and are kept apart here.

B1: ANAC013(254–274;L266I) (peptide, UniProt F4IED2 254-274, looked up)
chain: NLEEDMYLEINDIMEPEPEPT
notes: ANAC013, Arabidopsis thaliana, AT1G32870, residues 254-274 with Leu266 to Ile; Probably made from the ANAC013(254–274) plasmid of previous work and purified in the same way; also called AtANAC013(254–274;L266I)
B2: AtRCD1-RST(499–572) (domain or fragment, Arabidopsis thaliana, UniProt Q8RY59 499-572, looked up)
chain: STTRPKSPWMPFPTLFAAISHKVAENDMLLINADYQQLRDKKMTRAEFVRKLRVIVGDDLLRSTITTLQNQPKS
notes: RST domain of Radical-Induced Cell Death1 (RCD1), Arabidopsis thaliana, residues 499-572; also called AtRST(499–572); Arabidopsis RST domain
B3: AtDREB2A(244–272;L264I) (peptide, UniProt O82132 244-272, looked up)
chain: WPNDVDQSHLDSSDMFDVDEILRDLNGDD
notes: DREB2A, Arabidopsis thaliana, AT5G05410, residues 244-272 with Leu264 to Ile; source: mutation by QuikChange
B4: AtDREB2A(244–272) (peptide, UniProt O82132 244-272, looked up)
chain: WPNDVDQSHLDSSDMFDVDELLRDLNGDD
B5: ANAC087(315–335) (peptide, UniProt Q9FK44 315-335, looked up)
chain: MVNGSKSYEDLCDLRGDLWDF
notes: NAC transcription factor ANAC087, Arabidopsis thaliana, AT5G18270, residues 315-335

Columns and labels:
[1] = biological target: RCD1 499-572 (Arabidopsis thaliana) (UniProt Q8RY59); test: ITC; conditions: cited from earlier work
[2] = biological target: RCD1 RST (Arabidopsis thaliana) (UniProt Q8RY59); conditions: cited from earlier work
[3] = biological target: B4; test: ITC; RST domain in the syringe (100–300 µM) titrated into the TF fragment in the cell (10–30 µM); 25 °C; 50 mM Hepes, pH 7.4, 100 mM NaCl; one set of sites model
[4] = biological target: GmDREB2A(273–290) (Glycine max (soybean)); test: as above
[5] = biological target: ANAC013(254–274) (Arabidopsis thaliana) (UniProt F4IED2); test: as above
[6] = biological target: B2; test: as above; conditions: both partners purified
[7] = biological target: T1, HvNAC013(176–346) (Hordeum vulgare (barley), UniProt F2EJH0 176-346); test: as above; conditions: both partners purified
T1 construct: HvNAC013, barley (Hordeum vulgare) NAC transcription factor, ID AK376297.1, residues 176-346; also called barley ortholog of ANAC046; source: plasmid from previous work
T1 sequence (looked up): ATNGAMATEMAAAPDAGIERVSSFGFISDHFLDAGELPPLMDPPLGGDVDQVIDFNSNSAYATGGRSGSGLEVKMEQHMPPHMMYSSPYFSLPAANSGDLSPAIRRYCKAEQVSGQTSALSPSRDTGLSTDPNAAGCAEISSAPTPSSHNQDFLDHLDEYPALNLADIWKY

[8] = biological target: HvDRF1.1(255–273) (Hordeum vulgare (barley)); test: as above
[9] = biological target: B2; test: ITC; ANAC087(315–335) in the syringe (100–300 µM) titrated into the RST domain in the cell (10–30 µM); 25 °C; 50 mM Hepes, pH 7.4, 100 mM NaCl; one set of sites model; conditions: both partners purified

Sequence of ANAC013(254–274) (Arabidopsis thaliana) (F4IED2 254-274): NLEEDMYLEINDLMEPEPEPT

Q: Which Kd [1] does the source give for ANAC013 254-274 (from UniProt F4IED2) here?
A: 9 nM

Q: Which Kd [2] does the source give for ANAC046 (from UniProt Q9SQQ6) here?
A: 609 nM

Q: With “GmRCD1-RST(483–583) (domain or fragment)” as the molecule, how does the Kd [3] read?
A: 320 nM

Q: What about the dH [3] of the same molecule?
A: -9.25 kcal/mol

Q: What about the stoichiometry N [3] of the same molecule?
A: 0.95

Q: What about the Kd [4] of the same molecule?
A: 2590 nM

Q: And the dH [4]?
A: -5.62 kcal/mol

Q: And the stoichiometry N [4]?
A: 0.98

Q: What about the Kd [5] of the same molecule?
A: 526 nM

Q: And the dH [5]?
A: -8.77 kcal/mol

Q: And the stoichiometry N [5]?
A: 0.94

Q: For B1, which Kd [6] is on record?
A: 223 nM

Q: What does the source list for B2?
A: dH ([3]; both partners purified): -15.1 kcal/mol; stoichiometry N ([3]; both partners purified): 0.9; Kd [7]: 343 nM; dH [7]: -1.08 kcal/mol; stoichiometry N [7]: 1.03; Kd [4]: 397 nM; dH [4]: -8.34 kcal/mol; Kd [8]: 450 nM; dH [8]: -11.6 kcal/mol

Q: For B3, which Kd [6] is on record?
A: 39 nM

Q: For B4, which Kd [6] is on record?
A: 16 nM

Q: For B5, which Kd [9] is on record?
A: 1750 nM

Q: What about the dH [9] of the same molecule?
A: -3.8 kcal/mol

Q: And the “stoichiometry N” value [9]?
A: 0.93
